The record followed here is patent US20220220218A1 (JIANGSU HENGRUI MEDICINE, published 2022).

To fix the notation:
T1: human CD73 (huCD73) protein, antigen of the Biacore assay (human, UniProt P21589 27-547, limits assumed)
T1 construct: also called human CD73 antigen
T1 sequence (looked up): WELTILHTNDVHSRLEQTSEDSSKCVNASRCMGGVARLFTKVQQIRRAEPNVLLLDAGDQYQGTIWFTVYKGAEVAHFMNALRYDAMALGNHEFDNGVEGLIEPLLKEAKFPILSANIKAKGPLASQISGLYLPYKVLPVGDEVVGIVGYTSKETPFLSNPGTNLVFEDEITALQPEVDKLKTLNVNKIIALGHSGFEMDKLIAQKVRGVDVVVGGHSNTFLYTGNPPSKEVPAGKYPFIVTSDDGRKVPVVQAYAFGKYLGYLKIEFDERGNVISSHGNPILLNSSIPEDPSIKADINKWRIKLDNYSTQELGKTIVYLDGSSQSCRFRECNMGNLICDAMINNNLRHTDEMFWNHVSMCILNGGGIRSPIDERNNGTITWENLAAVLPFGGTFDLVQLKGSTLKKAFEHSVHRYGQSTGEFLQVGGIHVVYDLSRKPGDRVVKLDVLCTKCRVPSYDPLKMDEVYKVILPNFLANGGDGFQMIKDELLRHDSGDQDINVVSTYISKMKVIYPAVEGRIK

B1: Hab127.22 (antibody, V domains shown)
VH: EVQLVQSGAEVKKPGASVKVSCKASGYTFTAYFMNWVMQAPGQGLEWMGRIYHNNGDTFYSQKFKGRVTMTVDKSTSTVYMELSSLRSEDTAVYYCATSYVGDWGQGTTVTVSS
VL: DIQMTQSPSSLSASVGDRVTITCRASQDIGDSLNWLQQKPGKAPKRLIYATSSLDSGVPSRFSGSGSGTEYTLTISSLQPEDFATYYCLQYASFPWTFGGGTKVEIK
notes: VL2 + VH2; recombined with human heavy and light constant regions
B2: Hab127.41 (antibody, V domains shown)
VH: EVQLVQSGAEVKKPGASVKVSCKASGYTFTAYFMNWVRQAPGQGLEWMGRIYHNNGDTFYSQKFKGRVTMTVDKSTSTVYMELSSLRSEDTAVYYCATSYVGDWGQGTTVTVSS
VL: DIQMTQSPSSLSASVGDRVTITCRASQDIGDSLNWLQQKPGGALKRLIYATSSLDSGVPSRFSGSGSGSDYTLTISSLQPEDFATYYCLQYASFPWTFGGGTKVEIK
notes: VL4 + VH1; recombined with human heavy and light constant regions
B3: Hab127.31a (antibody, V domains shown)
VH: EVQLVQSGAEVKKPGASVKVSCKASGYTFTAYFMNWVRQAPGQGLEWMGRIYHNQGDTFYSQKFKGRVTMTVDKSTSTVYMELSSLRSEDTAVYYCATSYVGDWGQGTTVTVSS
VL: DIQMTQSPSSLSASVGDRVTITCRASQDIGDSLNWLQQKPGGALKRLIYATSSLDSGVPSRFSGSGSGTEYTLTISSLQPEDFATYYCLQYASFPWTFGGGTKVEIK
notes: VL3 + VH1a, HCDR2 hot-spot variant; full-length antibody
B4: Hab127.34 (antibody, V domains shown)
VH: EVQLVQSGAEVKKPGASVKVSCKASGYTFTAYFMNWVMQAPGQSLEWIGRIYHNNGDTFYSQKFKGRATLTVDKSTSTVYMELRSLRSEDTAVYYCATSYVGDWGQGTTVTVSS
VL: DIQMTQSPSSLSASVGDRVTITCRASQDIGDSLNWLQQKPGGALKRLIYATSSLDSGVPSRFSGSGSGTEYTLTISSLQPEDFATYYCLQYASFPWTFGGGTKVEIK
notes: VL3 + VH4; recombined with human heavy and light constant regions
B5: Hab127.31 (antibody, V domains shown)
VH: EVQLVQSGAEVKKPGASVKVSCKASGYTFTAYFMNWVRQAPGQGLEWMGRIYHNNGDTFYSQKFKGRVTMTVDKSTSTVYMELSSLRSEDTAVYYCATSYVGDWGQGTTVTVSS
VL: DIQMTQSPSSLSASVGDRVTITCRASQDIGDSLNWLQQKPGGALKRLIYATSSLDSGVPSRFSGSGSGTEYTLTISSLQPEDFATYYCLQYASFPWTFGGGTKVEIK
notes: VL3 + VH1; recombined with human heavy and light constant regions
B6: Hab127.42 (antibody, V domains shown)
VH: EVQLVQSGAEVKKPGASVKVSCKASGYTFTAYFMNWVMQAPGQGLEWMGRIYHNNGDTFYSQKFKGRVTMTVDKSTSTVYMELSSLRSEDTAVYYCATSYVGDWGQGTTVTVSS
VL: DIQMTQSPSSLSASVGDRVTITCRASQDIGDSLNWLQQKPGGALKRLIYATSSLDSGVPSRFSGSGSGSDYTLTISSLQPEDFATYYCLQYASFPWTFGGGTKVEIK
notes: VL4 + VH2; recombined with human heavy and light constant regions
B7: Hab127.31e (antibody, V domains shown)
VH: EVQLVQSGAEVKKPGASVKVSCKASGYTFTAYFMNWVRQAPGQGLEWMGRIYHNEGDTFYSQKFKGRVTMTVDKSTSTVYMELSSLRSEDTAVYYCATSYVGDWGQGTTVTVSS
VL: DIQMTQSPSSLSASVGDRVTITCRASQDIGDSLNWLQQKPGGALKRLIYATSSLDSGVPSRFSGSGSGTEYTLTISSLQPEDFATYYCLQYASFPWTFGGGTKVEIK
notes: VL3 + VH1e, HCDR2 hot-spot variant; full-length antibody
B8: Hab127.23 (antibody, V domains shown)
VH: EVQLVQSGAEVKKPGASVKVSCKASGYTFTAYFMNWVMQAPGQGLEWIGRIYHNNGDTFYSQKFKGRATLTVDKSTSTVYMELSSLRSEDTAVYYCATSYVGDWGQGTTVTVSS
VL: DIQMTQSPSSLSASVGDRVTITCRASQDIGDSLNWLQQKPGKAPKRLIYATSSLDSGVPSRFSGSGSGTEYTLTISSLQPEDFATYYCLQYASFPWTFGGGTKVEIK
notes: VL2 + VH3; recombined with human heavy and light constant regions
B9: Hab127.31g (antibody, V domains shown)
VH: EVQLVQSGAEVKKPGASVKVSCKASGYTFTAYFMNWVRQAPGQGLEWMGRIYHQNVDTFYSQKFKGRVTMTVDKSTSTVYMELSSLRSEDTAVYYCATSYVGDWGQGTTVTVSS
VL: DIQMTQSPSSLSASVGDRVTITCRASQDIGDSLNWLQQKPGGALKRLIYATSSLDSGVPSRFSGSGSGTEYTLTISSLQPEDFATYYCLQYASFPWTFGGGTKVEIK
notes: VL3 + VH1g, HCDR2 hot-spot variant; full-length antibody
B10: Hab127.24 (antibody, V domains shown)
VH: EVQLVQSGAEVKKPGASVKVSCKASGYTFTAYFMNWVMQAPGQSLEWIGRIYHNNGDTFYSQKFKGRATLTVDKSTSTVYMELRSLRSEDTAVYYCATSYVGDWGQGTTVTVSS
VL: DIQMTQSPSSLSASVGDRVTITCRASQDIGDSLNWLQQKPGKAPKRLIYATSSLDSGVPSRFSGSGSGTEYTLTISSLQPEDFATYYCLQYASFPWTFGGGTKVEIK
notes: VL2 + VH4; recombined with human heavy and light constant regions
B11: Hab127.31h (antibody, V domains shown)
VH: EVQLVQSGAEVKKPGASVKVSCKASGYTFTAYFMNWVRQAPGQGLEWMGRIYHLNVDTFYSQKFKGRVTMTVDKSTSTVYMELSSLRSEDTAVYYCATSYVGDWGQGTTVTVSS
VL: DIQMTQSPSSLSASVGDRVTITCRASQDIGDSLNWLQQKPGGALKRLIYATSSLDSGVPSRFSGSGSGTEYTLTISSLQPEDFATYYCLQYASFPWTFGGGTKVEIK
notes: VL3 + VH1h, HCDR2 hot-spot variant; full-length antibody
B12: Hab127.31b (antibody, V domains shown)
VH: EVQLVQSGAEVKKPGASVKVSCKASGYTFTAYFMNWVRQAPGQGLEWMGRIYHNLGDTFYSQKFKGRVTMTVDKSTSTVYMELSSLRSEDTAVYYCATSYVGDWGQGTTVTVSS
VL: DIQMTQSPSSLSASVGDRVTITCRASQDIGDSLNWLQQKPGGALKRLIYATSSLDSGVPSRFSGSGSGTEYTLTISSLQPEDFATYYCLQYASFPWTFGGGTKVEIK
notes: VL3 + VH1b, HCDR2 hot-spot variant; full-length antibody
B13: Hab127.31f (antibody, V domains shown)
VH: EVQLVQSGAEVKKPGASVKVSCKASGYTFTAYFMNWVRQAPGQGLEWMGRIYHNHGDTFYSQKFKGRVTMTVDKSTSTVYMELSSLRSEDTAVYYCATSYVGDWGQGTTVTVSS
VL: DIQMTQSPSSLSASVGDRVTITCRASQDIGDSLNWLQQKPGGALKRLIYATSSLDSGVPSRFSGSGSGTEYTLTISSLQPEDFATYYCLQYASFPWTFGGGTKVEIK
notes: VL3 + VH1f, HCDR2 hot-spot variant; full-length antibody
B14: Hab127.31c (antibody, V domains shown)
VH: EVQLVQSGAEVKKPGASVKVSCKASGYTFTAYFMNWVRQAPGQGLEWMGRIYHNTGDTFYSQKFKGRVTMTVDKSTSTVYMELSSLRSEDTAVYYCATSYVGDWGQGTTVTVSS
VL: DIQMTQSPSSLSASVGDRVTITCRASQDIGDSLNWLQQKPGGALKRLIYATSSLDSGVPSRFSGSGSGTEYTLTISSLQPEDFATYYCLQYASFPWTFGGGTKVEIK
notes: VL3 + VH1c, HCDR2 hot-spot variant; full-length antibody
B15: Hab127.33 (antibody, V domains shown)
VH: EVQLVQSGAEVKKPGASVKVSCKASGYTFTAYFMNWVMQAPGQGLEWIGRIYHNNGDTFYSQKFKGRATLTVDKSTSTVYMELSSLRSEDTAVYYCATSYVGDWGQGTTVTVSS
VL: DIQMTQSPSSLSASVGDRVTITCRASQDIGDSLNWLQQKPGGALKRLIYATSSLDSGVPSRFSGSGSGTEYTLTISSLQPEDFATYYCLQYASFPWTFGGGTKVEIK
notes: VL3 + VH3; recombined with human heavy and light constant regions
B16: Hab127.31i (antibody, V domains shown)
VH: EVQLVQSGAEVKKPGASVKVSCKASGYTFTAYFMNWVRQAPGQGLEWMGRIYHHNVDTFYSQKFKGRVTMTVDKSTSTVYMELSSLRSEDTAVYYCATSYVGDWGQGTTVTVSS
VL: DIQMTQSPSSLSASVGDRVTITCRASQDIGDSLNWLQQKPGGALKRLIYATSSLDSGVPSRFSGSGSGTEYTLTISSLQPEDFATYYCLQYASFPWTFGGGTKVEIK
notes: VL3 + VH1i, HCDR2 hot-spot variant; full-length antibody

For the assay, the target named is T1, human CD73 (huCD73) protein, antigen of …. As to the kind of experiment: SPR Biacore T200; antibody captured on Protein A chip, CD73 in flow; 1:1 Langmuir. The source says:
In this experiment, Biacore instrument was used to determine the affinity of the humanized anti-CD73 antibodies to be tested with human CD73 (huCD73) and monkey CD73 (cynoCD73).
A certain amount of test antibody was affinity-captured with Protein A biosensing chip (Cat. #29127556, GE), and then a certain concentration of human or monkey CD73 antigen was allowed to flow through the surface of the chip. The reaction signals were detected in real time with Biacore instrument (Biacore T200, GE) to generate a binding and dissociation curve. At the end of each cycle, after the dissociation was completed, the biosensor chip was washed and regenerated with Glycine-HCl, pH1.5 (Cat. #BR-1003-54, GE). The running buffer for the assay was 1×HBS-EP buffer solution (Cat. #BR-1001-88, GE).
The data obtained from the experiment was fitted against (1:1) Langmuir model using GE Biacore T200 Evaluation version 3.0 software, and the affinity values were obtained, as shown in Table 12 and Table 13 for details.
In general terms: SPR reads the build-up and loss of mass on a sensor chip optically.
As to B1, binding was put at a Kd of 0.292 nM, the koff came to 4.86e-05 s⁻¹ and the kon came out at 166000 M⁻¹ s⁻¹.

Take B2: the Kd is 0.191 nM, the koff was found to be 4.39e-05 s⁻¹ and the kon stood at 230000 M⁻¹ s⁻¹.

For B3, the Kd worked out at 0.219 nM, the koff turned out to be 4.8e-05 s⁻¹ and the kon is 219000 M⁻¹ s⁻¹.

In turn, B4 showed a Kd of 0.22 nM, a koff of 3.58e-05 s⁻¹ and an association rate constant (kon) of 163000 M⁻¹ s⁻¹.

Consider B5, for which the affinity, expressed as Kd, was 0.257 nM; the koff stood at 4.2e-05 s⁻¹; the kon came to 163000 M⁻¹ s⁻¹.

B6 yielded a Kd of 0.166 nM, a koff of 3.94e-05 s⁻¹ and a kon of 238000 M⁻¹ s⁻¹.

Take B7: the Kd amounted to 0.212 nM, the koff turned out to be 3.75e-05 s⁻¹ and the kon turned out to be 177000 M⁻¹ s⁻¹.

Regarding B8, the affinity, expressed as Kd, was 0.276 nM; the koff amounted to 4.59e-05 s⁻¹; the kon came out at 166000 M⁻¹ s⁻¹.

Take B9: the Kd worked out at 0.319 nM, the koff came out at 5.18e-05 s⁻¹ and the kon came to 163000 M⁻¹ s⁻¹.

B10 had a Kd of 0.28 nM, a koff of 4.48e-05 s⁻¹ and a kon of 160000 M⁻¹ s⁻¹.

Molecule B11 showed a Kd of 0.441 nM, a koff of 6.66e-05 s⁻¹ and a kon of 151000 M⁻¹ s⁻¹.

As for B12, the Kd was 0.204 nM, the koff was found to be 4.48e-05 s⁻¹ and the kon was 220000 M⁻¹ s⁻¹.

B13 gave a Kd of 0.193 nM, a koff of 4.33e-05 s⁻¹ and a kon of 224000 M⁻¹ s⁻¹.

B14 returned a Kd of 0.205 nM, a koff of 4.76e-05 s⁻¹ and a kon of 232000 M⁻¹ s⁻¹.

B15 showed a dissociation constant Kd of 0.211 nM, a koff of 3.69e-05 s⁻¹ and a kon of 175000 M⁻¹ s⁻¹.

B16 showed a Kd of 0.585 nM, a koff of 7.93e-05 s⁻¹ and a kon of 136000 M⁻¹ s⁻¹.

The Kd is the free concentration of one partner at which half of the binding sites on the other are occupied at equilibrium, for simple one-to-one binding. A lower Kd goes with tighter binding. As usually defined, the koff is the first-order rate constant of dissociation. Usually kon stands for a measure of how fast the partners come together. A low value points to slow association.
